Data on nine molecules can be found in patent US20260146077A1 (US Dept. of Health and Human Services, published 2026).

Where two headings read alike, the source gives them in different places. Bounds are passed on as bounds.

Assay in all cases: cell-based or functional assay
Test [1] concerns the target T1, SARS-CoV-2 spike protein, B.1.617.2 (SARS-CoV-2, UniProt P0DTC2 14-1273).
In test [2] the target is T2, SARS-CoV-2 spike protein, B.1.351 (SARS-CoV-2, UniProt P0DTC2 14-1273).
In test [3] the target is T3, SARS-CoV-2 spike protein, BA.1 (SARS-CoV-2, UniProt P0DTC2 14-1273).
The target in another test is BA.4.6.
The next test has as its target BA.2.75.
Test [4] addresses SARS-CoV-2 spike protein, BA.2.12.1 (SARS-CoV-2, UniProt P0DTC2 14-1273).
Test [5] addresses T3, SARS-CoV-2 spike protein, BA.1. This is another data set of the same source.
In test [6] the target is T1, SARS-CoV-2 spike protein, B.1.617.2. The source holds these as a separate data set.
The target of test [7] is T2, SARS-CoV-2 spike protein, B.1.351. This is another data set of the same source.
Test [8] concerns the target T3, SARS-CoV-2 spike protein, BA.1. This is another data set of the same source.
The target of test [9] is SARS-CoV-2 spike protein, BA.1.1 (SARS-CoV-2, UniProt P0DTC2 14-1273).
Test [10] concerns the target SARS-CoV-2 spike protein, BA.2 (SARS-CoV-2, UniProt P0DTC2 14-1273).

B1: A23-58.1HC/58.1LC_94GLTG (antibody, V domains shown)
VH: not shown
VL: EIVLTQSPGTLSLSPGERATLSCRASQSVSSSYLAWYQQKPGQAPRLLIYSASSRATGIPDRFSGSGSGTDFTLTISRLEPEDFAVYFCQQYGGLTGWTFGQGTKVEIK
For the molecule B1, the “neutralization IC50” value in test [1] was 2.9 ng/mL; in test [2] it was 1.8 ng/mL; in test [3], 3.6 ng/mL; with BA.4.6, 4.2 ng/mL; in the test with BA.2.75 it was 1 ng/mL; in test [4], 1.9 ng/mL. Besides, the “neutralization IC80” value came to 11.2 ng/mL in test [1]; 4.4 ng/mL in [2]; 11.9 ng/mL in test [3]; 15.7 ng/mL with BA.4.6; 3.1 ng/mL with BA.2.75; 9.2 ng/mL in test [4]. The “BA.1 neutralization, fold improvement over A19-58.1” value in test [5] is > 27 fold.

B2: B1-182.1HC/182.1LC_93VGLTG (antibody, V domains shown)
VH: not shown
VL: EIVLTQSPGTLSLSPGERATLSCRASQSVSSSYLAWYQQKPGQAPRLLIYGASSRATGFPDRFSGSGSGTDFTLTISRLEPEDFAVYYCQQYVGLTGWTFGQGTKVEIR
For the molecule B2, the figures for the “neutralization IC50” value in test [6], in [7] and in test [8] were 1.4 ng/mL, 0.9 ng/mL and 11.5 ng/mL, respectively. Further, the results for the “neutralization IC80” value in [6], in [7] and in test [8] were 5.9 ng/mL, 4.4 ng/mL and 39.6 ng/mL, respectively. Further, in test [5], the “BA.1 neutralization, fold improvement over B1-182.1” value was > 17 fold.

B3: S2E12 (antibody, V domains shown)
VH: not shown
VL: DIVLTQTPGTLSLSPGERATLSCRASQSVSSSYLAWYQQKPGQAPRLLIYGASSRATGIPDRFSGSGSGTDFTLTISRLEPEDFAVYYCQQYVGLTGWTFGQGTKVEIK
As for B3, the “neutralization IC50” value in [1] was found to be 1.2 ng/mL; in test [9], 15.5 ng/mL; in test [2], 3.9 ng/mL; in test [4] it was 15.6 ng/mL; in [10], 9.9 ng/mL. The “neutralization IC80” value in test [1] came out at 2.6 ng/mL; in test [9] it was 55.4 ng/mL; in [2], 8.7 ng/mL; in [3], 38.5 ng/mL; in test [4], 46.6 ng/mL; in test [10], 48.2 ng/mL. The “fold loss in neutralization” value in test [5] is < 10 fold loss. In addition, the “pseudovirus neutralization IC50” value in test [5] amounted to 8.8 ng/mL.

B4: B1-182.1HC/S2E12LC (antibody, V domains shown)
VH: not shown
VL: DIVLTQTPGTLSLSPGERATLSCRASQSVSSSYLAWYQQKPGQAPRLLIYGASSRATGIPDRFSGSGSGTDFTLTISRLEPEDFAVYYCQQYVGLTGWTFGQGTKVEIK
Regarding B4, the “neutralization IC50” value in [1] stood at 1.1 ng/mL; in test [9], 4.7 ng/mL; in [2], 0.8 ng/mL; in test [3], 9.9 ng/mL; in test [4], 11.5 ng/mL; in [10], 6.3 ng/mL. For the same molecule, the “neutralization IC80” value in test [1] amounted to 2.9 ng/mL; in test [9] it was 24.2 ng/mL; in [2] it was 4.4 ng/mL; in test [3], 45.2 ng/mL; in test [4], 35 ng/mL; in test [10] it was 28 ng/mL. Also, in [5], the “BA.1 neutralization, fold improvement over B1-182.1” value amounted to 20 fold.

B5: A23-58.1HC_Y100cA/S2E12LC (antibody, V domains shown)
VH: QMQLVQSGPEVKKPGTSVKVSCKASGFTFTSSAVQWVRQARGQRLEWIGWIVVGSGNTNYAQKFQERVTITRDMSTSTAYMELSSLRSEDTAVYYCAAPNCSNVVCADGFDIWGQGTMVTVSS
VL: DIVLTQTPGTLSLSPGERATLSCRASQSVSSSYLAWYQQKPGQAPRLLIYGASSRATGIPDRFSGSGSGTDFTLTISRLEPEDFAVYYCQQYVGLTGWTFGQGTKVEIK
Turning to B5, the “neutralization IC50” value turned out to be 2.9 ng/mL in test [1]; 4.4 ng/mL in [9]; 2.6 ng/mL in test [2]; 4.9 ng/mL in test [3]; 35.1 ng/mL in test [4]; 8.4 ng/mL in test [10]. Also, the “neutralization IC80” value came out at 7.8 ng/mL in test [1]; 13.1 ng/mL in test [9]; 5.9 ng/mL in test [2]; 26.1 ng/mL in test [3]; 142 ng/mL in test [4]; 38.4 ng/mL in test [10]. The “BA.1 neutralization, fold improvement over A19-58.1” value in test [5] was 20 fold.

B6: B1-182.1HC/182.1LC_94GLTG (antibody, V domains shown)
VH: not shown
VL: EIVLTQSPGTLSLSPGERATLSCRASQSVSSSYLAWYQQKPGQAPRLLIYGASSRATGFPDRFSGSGSGTDFTLTISRLEPEDFAVYYCQQYGGLTGWTFGQGTKVEIR
For the molecule B6, the figures for the “neutralization IC50” value in test [6], in [7] and in [8] were 4.1 ng/mL, 2.3 ng/mL and 14.2 ng/mL, respectively. The “neutralization IC80” value in test [6] turned out to be 8.6 ng/mL; in test [7] it was 6.3 ng/mL; in test [8], 62.3 ng/mL. Besides, the “BA.1 neutralization, fold improvement over B1-182.1” value in [5] was > 13 fold.

B7: B1-182.1HC_F100cS/S2E12LC (antibody, V domains shown)
VH: not shown
VL: DIVLTQTPGTLSLSPGERATLSCRASQSVSSSYLAWYQQKPGQAPRLLIYGASSRATGIPDRFSGSGSGTDFTLTISRLEPEDFAVYYCQQYVGLTGWTFGQGTKVEIK
With B7, the “neutralization IC50” value in test [1] was determined as 1.2 ng/mL; in test [9], 8.4 ng/mL; in test [2] it was 1.5 ng/mL; in test [3], 13.9 ng/mL; in test [4], 14.9 ng/mL; in test [10], 9.4 ng/mL. The “neutralization IC80” value in test [1] is 3.3 ng/mL; in [9], 20 ng/mL; in test [2], 4.4 ng/mL; in [3], 51.6 ng/mL; in [4], 54.2 ng/mL; in [10], 31.7 ng/mL. For the same molecule, the “BA.1 neutralization, fold improvement over B1-182.1” value in test [5] was > 14 fold.

B8: A23-58.1HC/S2E12LC (antibody, V domains shown)
VH: not shown
VL: DIVLTQTPGTLSLSPGERATLSCRASQSVSSSYLAWYQQKPGQAPRLLIYGASSRATGIPDRFSGSGSGTDFTLTISRLEPEDFAVYYCQQYVGLTGWTFGQGTKVEIK
In the case of B8, the “neutralization IC50” value came out at 2.2 ng/mL in [1]; 3.8 ng/mL in test [9]; 3.5 ng/mL in test [2]; 9.8 ng/mL in [3]; 56.6 ng/mL in test [4]; 6.7 ng/mL in [10]. Besides, the “neutralization IC80” value stood at 7.6 ng/mL in test [1]; 15.8 ng/mL in test [9]; 7.9 ng/mL in test [2]; 31.1 ng/mL in test [3]; 201 ng/mL in [4]; 26.9 ng/mL in test [10]. Also, the “BA.1 neutralization, fold improvement over A19-58.1” value in test [5] turned out to be 10 fold.

B9: A23-58.1HC/58.1LC_93VGLTG (antibody, V domains shown)
VH: not shown
VL: EIVLTQSPGTLSLSPGERATLSCRASQSVSSSYLAWYQQKPGQAPRLLIYSASSRATGIPDRFSGSGSGTDFTLTISRLEPEDFAVYFCQQYVGLTGWTFGQGTKVEIK
Consider B9, for which the “neutralization IC50” value in test [1] stood at 5.8 ng/mL; in test [2], 2.7 ng/mL; in test [3], 3.3 ng/mL; with BA.4.6, 4.1 ng/mL; with BA.2.75, 0.9 ng/mL; in [4] it was 3.4 ng/mL. Further, the “neutralization IC80” value in test [1] was 12.4 ng/mL; in test [2], 5 ng/mL; in test [3], 11.2 ng/mL; with BA.4.6 it was 14.8 ng/mL; with BA.2.75, 3 ng/mL; in test [4], 11.5 ng/mL. In addition, in test [5], the “BA.1 neutralization, fold improvement over A19-58.1” value was > 30 fold.
